Test results taken from patent publication US20200199241A1 (Chugai, published 2020).
Positions count from the first letter of the chain named.

B1: IgG1-F757 (antibody)
heavy: QVQLQESGPGLVKPSETLSLTCAVSGHSISHDHAWSWVRQPPGEGLEWIGFISYSGITNYNPSLQGRVTISRDNSKNTLYLQMNSLRAEDTAVYYCARSLARTTAMDYWGEGTLVTVSSASTKGPSVFPLAPSSKSTSGGTAALGCLVKDYFPEPVTVSWNSGALTSGVHTFPAVLQSSGLYSLSSVVTVPSSSLGTQTYICNVNHKPSNTKVDKKVEPKSCDKTHTCPPCPAPELLGGDSVFLFPPKPKDWLYISRTPEVTCVVVDVSHEDPEVKFNWYVDGVEVHNAKTKPREEQYNSTYRVVSVLTVLHQDWLNGKEYKCKVSNKALPAPIEKTISKAKGQPREPQVYTLPPSRDELTKNQVSLTCLVKGFYPSDIAVEWESNGQPENNYKTTPPVLDSDGSFFLYSKLTVDKSRWQQGNVFSCSVMHEALHYHYTQKSLSLSP
light: not shown
notes: EU numbering; copies: 2 + 2
B2: IgG1-F763 (antibody)
heavy: B1 heavy with L237R, D240P, S241K, W252T, N288E, T309Q, Q313A
light: not shown
notes: EU numbering; copies: 2 + 2
B3: IgG1-F775 (antibody)
heavy: B1 heavy with D240P, W252T, K340A
light: not shown
notes: EU numbering; copies: 2 + 2
B4: IgG1-F771 (antibody)
heavy: B1 heavy with D240P, W252T, E274A
light: not shown
notes: EU numbering; copies: 2 + 2
B5: IgG1-F764 (antibody)
heavy: B1 heavy with W252T, Y254M, T309Q, Q313A
light: not shown
notes: EU numbering; copies: 2 + 2
B6: IgG1-F820 (antibody)
heavy: B1 heavy with L237K, D240P, S241K, W252T
light: not shown
notes: EU numbering; copies: 2 + 2
B7: IgG1-F821 (antibody)
heavy: B1 heavy with L237R, D240P, S241K, W252T
light: not shown
notes: copies: 2 + 2
B8: IgG1-F810 (antibody)
heavy: B1 heavy with D240P, W252T, A380V
light: not shown
notes: EU numbering; copies: 2 + 2
B9: IgG1-F762 (antibody)
heavy: B1 heavy with L237K, D240P, S241K, W252T, N288E, T309Q, Q313A
light: not shown
notes: EU numbering; copies: 2 + 2
B10: IgG1-F807 (antibody)
heavy: B1 heavy with D240P, W252T, N391A
light: not shown
notes: EU numbering; copies: 2 + 2
B11: IgG1-F788 (antibody)
heavy: B1 heavy with D240P, W252T, N317A
light: not shown
notes: EU numbering; copies: 2 + 2
B12: IgG1-F795 (antibody)
heavy: B1 heavy with D240P, W252T, N317L
light: not shown
notes: EU numbering; copies: 2 + 2
B13: IgG1-F800 (antibody)
heavy: B1 heavy with D240P, W252T, N317S
light: not shown
notes: EU numbering; copies: 2 + 2
B14: IgG1-F823 (antibody)
heavy: B1 heavy with W252Y, W315F
light: not shown
notes: EU numbering; copies: 2 + 2
B15: IgG1-F776 (antibody)
heavy: B1 heavy with D240P, W252T, K342A
light: not shown
notes: EU numbering; copies: 2 + 2
B16: IgG1-F793 (antibody)
heavy: B1 heavy with D240P, W252T, N317I
light: not shown
notes: EU numbering; copies: 2 + 2
B17: IgG1-F767 (antibody)
heavy: B1 heavy with D240P, W252T, Y254M, T309Q, L311E, Q313A
light: not shown
notes: EU numbering; copies: 2 + 2
B18: IgG1-F766 (antibody)
heavy: B1 heavy with D240P, W252T, Y254M, T309A, L311E, Q313A
light: not shown
notes: EU numbering; copies: 2 + 2
B19: IgG1-F780 (antibody)
heavy: B1 heavy with D240P, W252T, Q364A
light: not shown
notes: EU numbering; copies: 2 + 2
B20: IgG1-F783 (antibody)
heavy: B1 heavy with D240P, W252T, D415A
light: not shown
notes: EU numbering; copies: 2 + 2
B21: IgG1-F782 (antibody)
heavy: B1 heavy with D240P, W252T, Y393A
light: not shown
notes: EU numbering; copies: 2 + 2
B22: IgG1-F806 (antibody)
heavy: B1 heavy with D240P, W252T, N386A
light: not shown
notes: EU numbering; copies: 2 + 2
B23: IgG1-F785 (antibody)
heavy: B1 heavy with D240P, W252T, L311H
light: not shown
notes: EU numbering; copies: 2 + 2
B24: IgG1-F779 (antibody)
heavy: B1 heavy with D240P, W252T, N363A
light: not shown
notes: EU numbering; copies: 2 + 2
B25: IgG1-F794 (antibody)
heavy: B1 heavy with D240P, W252T, N317K
light: not shown
notes: EU numbering; copies: 2 + 2
B26: IgG1-F773 (antibody)
heavy: B1 heavy with D240P, W252T, V284A
light: not shown
notes: EU numbering; copies: 2 + 2
B27: IgG1-F777 (antibody)
heavy: B1 heavy with D240P, W252T, E347A
light: not shown
notes: EU numbering
B28: IgG1-F786 (antibody)
heavy: B1 heavy with D240P, W252T, S256T, N288E, T309Q, Q313A
light: not shown
notes: EU numbering; copies: 2 + 2
B29: IgG1-F790 (antibody)
heavy: B1 heavy with D240P, W252T, N317E
light: not shown
notes: EU numbering; copies: 2 + 2
B30: IgG1-F814 (antibody)
heavy: B1 heavy with D240P, W252T, Y438I
light: not shown
notes: EU numbering; copies: 2 + 2
B31: IgG1-F799 (antibody)
heavy: B1 heavy with D240P, W252T, N317R
light: not shown
notes: EU numbering; copies: 2 + 2
B32: IgG1-F784 (antibody)
heavy: B1 heavy with D240P, W252T, L311A
light: not shown
notes: EU numbering; copies: 2 + 2
B33: IgG1-F816 (antibody)
heavy: B1 heavy with W252V, T309P
light: not shown
notes: EU numbering; copies: 2 + 2
B34: IgG1-F803 (antibody)
heavy: B1 heavy with D240P, W252T, N317W
light: not shown
notes: EU numbering; copies: 2 + 2
B35: IgG1-F798 (antibody)
heavy: B1 heavy with D240P, W252T, N317Q
light: not shown
notes: EU numbering; copies: 2 + 2
B36: IgG1-F817 (antibody)
heavy: B1 heavy with W252V, T309Q, Q313A
light: not shown
notes: EU numbering; copies: 2 + 2
B37: IgG1-F815 (antibody)
heavy: B1 heavy with D240P, W252T, T439R
light: not shown
notes: EU numbering; copies: 2 + 2
B38: IgG1-F801 (antibody)
heavy: B1 heavy with D240P, W252T, N317T
light: not shown
notes: EU numbering; copies: 2 + 2
B39: IgG1-F787 (antibody)
heavy: B1 heavy with D240P, W252T, S256T, T309Q, L311E, Q313A
light: not shown
notes: EU numbering; copies: 2 + 2
B40: IgG1-F822 (antibody)
heavy: B1 heavy with W252Y, W315Y
light: not shown
notes: EU numbering; copies: 2 + 2
B41: IgG1-F804 (antibody)
heavy: B1 heavy with D240P, W252T, N317Y
light: not shown
notes: EU numbering; copies: 2 + 2
B42: IgG1-F819 (antibody)
heavy: B1 heavy with W252T, N288E
light: not shown
notes: EU numbering; copies: 2 + 2
B43: IgG1-F789 (antibody)
heavy: B1 heavy with D240P, W252T, N317D
light: not shown
notes: EU numbering; copies: 2 + 2
B44: IgG1-F769 (antibody)
heavy: B1 heavy with D240P, W252T, Y254M, T309Q, L311E, Q313H
light: not shown
notes: EU numbering; copies: 2 + 2
B45: IgG1-F796 (antibody)
heavy: B1 heavy with D240P, W252T, N317M
light: not shown
notes: EU numbering; copies: 2 + 2
B46: IgG1-F792 (antibody)
heavy: B1 heavy with D240P, W252T, N317G
light: not shown
notes: EU numbering; copies: 2 + 2
B47: IgG1-F768 (antibody)
heavy: B1 heavy with D240P, W252T, Y254M, T309A, L311E, Q313H
light: not shown
notes: EU numbering; copies: 2 + 2
B48: IgG1-F808 (antibody)
heavy: B1 heavy with D240P, W252T, N391A, N392A
light: not shown
notes: EU numbering; copies: 2 + 2
B49: IgG1-F809 (antibody)
heavy: B1 heavy with D240P, W252T, S256T, T258S
light: not shown
notes: EU numbering; copies: 2 + 2
B50: IgG1-F813 (antibody)
heavy: B1 heavy with D240P, W252T, S426E
light: not shown
notes: EU numbering; copies: 2 + 2
B51: IgG1-F774 (antibody)
heavy: B1 heavy with D240P, W252T, N288A
light: not shown
notes: EU numbering; copies: 2 + 2
B52: IgG1-F765 (antibody)
heavy: B1 heavy with W252T, T309Q, L311E, Q313A
light: not shown
notes: EU numbering; copies: 2 + 2
B53: IgG1-F770 (antibody)
heavy: B1 heavy with D240P, W252T, T258A
light: not shown
notes: EU numbering; copies: 2 + 2
B54: IgG1-F781 (antibody)
heavy: B1 heavy with D240P, W252T, S377A
light: not shown
notes: EU numbering; copies: 2 + 2
B55: IgG1-F772 (antibody)
heavy: B1 heavy with D240P, W252T, K276A
light: not shown
notes: EU numbering; copies: 2 + 2
B56: IgG1-F812 (antibody)
heavy: B1 heavy with D240P, W252T, E384V
light: not shown
notes: EU numbering; copies: 2 + 2
B57: IgG1-F758 (antibody)
heavy: B1 heavy with W252Y
light: not shown
notes: EU numbering; copies: 2 + 2
B58: IgG1-F811 (antibody)
heavy: B1 heavy with D240P, W252T, E382S
light: not shown
notes: EU numbering; copies: 2 + 2
B59: IgG1-F805 (antibody)
heavy: B1 heavy with D240P, W252T, N327A
light: not shown
notes: EU numbering; copies: 2 + 2
B60: IgG1-F828 (antibody)
heavy: B1 heavy with W252V, I255V
light: not shown
notes: EU numbering; copies: 2 + 2

target: T1, soluble human FcRn complexed with β2-microglobulin (human, UniProt P61769 21-119, limits assumed); assay: Biacore SPR, pH 7.0;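 note: test antibodies captured on a Protein L chip with human FcRn flowed over as analyte, KD obtained as the ratio of dissociation to association rate constants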
T1 construct: also called hFcRn

Row | Kd | Binder
1 | 1200 nM | B1
2 | 35 nM | B2
3 | 620 nM | B3
4 | 400 nM | B4
5 | 630 nM | B5
6 | 340 nM | B6
7 | 310 nM | B7
8 | 220 nM | B8
9 | 36 nM | B9
10 | 320 nM | B10
11 | 410 nM | B11
12 | 310 nM | B12
13 | 380 nM | B13
14 | 1100 nM | B14
15 | 390 nM | B15
16 | 330 nM | B16
17 | 430 nM | B17
18 | 600 nM | B18
19 | 390 nM | B19
20 | 400 nM | B20

Row | Kd | Binder
21 | 350 nM | B21
22 | 310 nM | B22
23 | 740 nM | B23
24 | 390 nM | B24
25 | 410 nM | B25
26 | 390 nM | B26
27 | 390 nM | B27
28 | 28 nM | B28
29 | 270 nM | B29
30 | 120 nM | B30
31 | 410 nM | B31
32 | 500 nM | B32
33 | 360 nM | B33
34 | 360 nM | B34
35 | 350 nM | B35
36 | 98 nM | B36
37 | 550 nM | B37
38 | 440 nM | B38
39 | 88 nM | B39
40 | 1100 nM | B40

Row | Kd | Binder
41 | 400 nM | B41
42 | 140 nM | B42
43 | 150 nM | B43
44 | 460 nM | B44
45 | 340 nM | B45
46 | 440 nM | B46
47 | 640 nM | B47
48 | 320 nM | B48
49 | 220 nM | B49
50 | 280 nM | B50
51 | 400 nM | B51
52 | 85 nM | B52
53 | 500 nM | B53
54 | 370 nM | B54
55 | 380 nM | B55
56 | 270 nM | B56
57 | 1400 nM | B57
58 | 490 nM | B58
59 | 300 nM | B59
60 | 2500 nM | B60
